From patent US20250163149A1, “ANTI-RAGE ANTIBODY” (Swansea University, priority 2022, published 2025) come the findings set out here.

The target of assay [1] is synthetic peptide S155 of the RAGE V-domain (amino acids 39-65) (human). Kind of assay: ELISA, BSA-conjugated peptide S155 on the plate, two-fold dilutions of antibody, HRP anti-mouse, OD 450 nm. (ELISA stands for enzyme-linked immunosorbent assay.)
For assay [2] the target is unchanged. The experiment in a line: SPR (Biacore T200), antibody amine-coupled to a CM5 chip as ligand, RAGE peptide S155 (BioRad) as analyte, multi-cycle kinetics, 1:1 fit; 'No steady state.'. On the technique in general: SPR reads the build-up and loss of mass on a sensor chip optically.
In assay [3] the target is Human rRAGE, full-length RAGE recombinant protein from Merck (human) (UniProt Q15109). Kind of assay: SPR (Biacore T200), antibody amine-coupled to a CM5 chip as ligand, RAGE recombinant protein (Merck) as analyte, multi-cycle kinetics, 1:1 fit.
Chain of Human rRAGE, full-length RAGE recombinant protein from Merck (human) (Q15109 23-404 limits assumed): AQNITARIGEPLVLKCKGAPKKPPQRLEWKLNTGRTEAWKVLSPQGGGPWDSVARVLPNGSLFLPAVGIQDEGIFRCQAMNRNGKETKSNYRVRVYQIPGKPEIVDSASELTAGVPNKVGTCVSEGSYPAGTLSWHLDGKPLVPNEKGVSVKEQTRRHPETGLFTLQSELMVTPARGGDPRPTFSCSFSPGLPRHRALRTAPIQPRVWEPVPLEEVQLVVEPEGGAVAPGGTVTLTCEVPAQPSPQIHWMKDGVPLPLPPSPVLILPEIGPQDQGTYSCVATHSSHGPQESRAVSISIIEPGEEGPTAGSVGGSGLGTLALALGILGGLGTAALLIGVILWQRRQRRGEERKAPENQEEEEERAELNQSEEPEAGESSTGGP
The target of assay [4] is T1, synthetic peptide S155 of the RAGE V-domain (amino acids 39-65) (human).
T1 construct: injected as analyte in SPR; also called RAGE synthetic peptide
T1 peptide: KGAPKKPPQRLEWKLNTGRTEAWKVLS
Kind of assay: SPR (Biacore T200), antibody amine-coupled to a CM5 chip as ligand, RAGE Peptide (S155) as analyte, multi-cycle kinetics, 1:1 fit. The protocol:
Data were then fitted to a 1:1 binding model.
(§1) For on-rate and off-rate screening, Biacore™ T200 system (Cytiva, Uppsala, Sweden) was used to perform SPR analysis with 1×HBS-EP+ buffer (0.01M Hepes, 0.15M NaCl, 0.003M ethylenediaminetetraacetic acid, and 0.05% Surfactant P20, pH 7.4) (BR100669) used as sample and running buffer. The analysis temperature at the sensor chip surface and within the compartment was set to 25° C. Firstly, pH scouting with 10 mM sodium acetate buffer 4.0 (BR-1003-49), 10 mM sodium acetate buffer 4.5 (BR-1003-50), 10 mM sodium acetate buffer 5.0 (BR-1003-51) and 10 mM sodium acetate buffer 5.5 (BR-1003-52) was performed to identify the optimal pH required for ligand (α-RAGE antibodies) immobilization. This was followed by diluting the ligand with the appropriate Acetate buffer to at least 10 μg/mL. The ligand immobilization on the surface Series S Sensor Chip CM5 (29-1496-03, Cytiva) was performed using the Amine Coupling Kit (BR100050, Cytiva) containing 1-Etyhyl-3-(3-dimethylaminopropyl)-carbodiimide hydrochloride (EDC), N-Hydroxysuccinimide (NHS) and 1.0M ethanolamine-HcL PH 8.5 in accordance with the manufacturer's instructions. For each experimental run, the ligand was immobilized in flow cells 2 or 4 while flow cells 1 or 3 were left unmodified.

The target in assay [5] is RAGE (Homo sapiens, UniProt Q15109). Kind of assay: Western blot on protein extracts from human healthy tissues. Particulars: brain, breast, kidney, liver, lung, ovary, pancreas, spleen and uterus. For orientation: Immunoblotting shows a protein as a band on a membrane.
Chain of RAGE (Homo sapiens, UniProt Q15109) (Q15109 23-404): as the sequence (Q15109 23-404 limits assumed) above
Assay [6] has as its target T2, RAGE recombinant protein (Human rRAGE) (Homo sapiens, UniProt Q15109).
T2 construct: Human rRAGE=Full-length RAGE recombinant protein from Merck; purchased Merck
The experiment in a line: Surface plasmon resonance binding kinetics (Biacore T200), recombinant protein analyte. Particulars: analyte RAGE recombinant protein, or RAGE synthetic peptide, not separated. On the procedure: as §1, with “unmodified. Flow cells 2 and 4 were used as active flow cells while flow cells 1 and 3 were used as reference flow cells. Ligand immobilization levels were typically within the range 500-900 RU for the kinetic experiments and injected with a flow rate of 10 μL/min and contact time of 300 s. Analytes (RAGE recombinant protein and synthetic peptides) were injected for 120 s with a flow rate of 30 μL/min and dissociation time of 600 s run in order of increasing concentration over the reference and active flow cells using a multi-cycle kinetic approach with five-seven concentration range. Following each binding cycle, the surface was regenerated with a 30 s injection of 10 mM Glycine-HcL, pH 2.5 regeneration solution (BR-1003-56), removing the bound antibody with a contact time of 30 s, flow rate of 30 μL/min and a stabilization period of Os. […]” for “unmodified.”

For assay [7], the target named is T3, RAGE synthetic peptide (S155) (Homo sapiens, UniProt Q15109).
T3 construct: purchased Biorad; host or cells: chemical synthesis
Kind of assay: ELISA screening of purified anti-RAGE antibody clones. The assay is classed as binding. The note with it: BSA-conjugated peptide S155; serial dilutions of antibody; 6 murine clones compared. The protocol:
A 96-well plate was coated with 5 μg/ml of RAGE synthetic peptides or RAGE recombinant protein diluted in phosphate-buffered saline (pH 7.4) overnight at 4° C. The solution was removed, washed with PBS-Tween (PBST) and the plate was blocked with ELISA ultrablock buffer (Biorad) for 1 h at room temperature. After blocking, the plate was washed with PBST and a range of concentrations of α-RAGE antibodies was applied to the plate for 2 h at room temperature. The plate was washed thoroughly with PBST and incubated with HRP-conjugated anti-mouse antibodies diluted 1:1000 in PBS-Tween. After washes with PBST, TMB Core+ substrate solution (Biorad) was added to each well and incubated at room temperature for 30 minutes. 0.2M H2SO4 was used as a stop solution. Absorbance at 450 nm was measured in a Biorad absorbance microplate reader.

Assay [8] concerns RAGE. The experiment in a line: Western blot on protein extracts from ovarian cancer cell lines (OCCL). Details: species or system human. The note with it: whole-cell extracts of SKOV3, OVCAR3, A2780 and cisplatin-resistant lines; antibody 1 μg/mL. On the procedure: Confluent cultures of cells were lysed in ice cold RIPA buffer (Sigma-Aldrich), whole-cell protein extracts were quantified with DC protein assay, 30 μg/lane were resolved by SDS-PAGE on TGX precast gels, transferred to mini PDVF membranes, blocked 1 h at RT in 5% Bovine Serum Albumin (BSA) in TBST (Tris Buffered Saline, 0.1% Tween-20) and incubated o/n at 4° C. in the same solution with 1 μg/mL of mA9 (sc-365154, Santa Cruz Biotechnology) antibody, mHA9 antibody or hHA9 antibody, or GAPDH (Santa Cruz Biotechnology) as loading control. Membranes were then washed with TBST and incubated 1 h at RT with 0.1 μg/mL of IgG horseradish peroxidase secondary antibody (GE Healthcare) or […] of Goat F(ab′) 2 Anti-Mouse IgG-F(ab′) 2 horseradish peroxidase secondary antibody (Abcam). Target proteins were visualised after incubation with Clarity Western ECL Substrate and imaged using a ChemiDoc System Bio-Rad Imager. Bands were quantified with ImageLab software. Unless stated all the materials specified above were obtained from Bio-Rad Laboratories.
Chain of RAGE (Q15109 23-317 limits assumed): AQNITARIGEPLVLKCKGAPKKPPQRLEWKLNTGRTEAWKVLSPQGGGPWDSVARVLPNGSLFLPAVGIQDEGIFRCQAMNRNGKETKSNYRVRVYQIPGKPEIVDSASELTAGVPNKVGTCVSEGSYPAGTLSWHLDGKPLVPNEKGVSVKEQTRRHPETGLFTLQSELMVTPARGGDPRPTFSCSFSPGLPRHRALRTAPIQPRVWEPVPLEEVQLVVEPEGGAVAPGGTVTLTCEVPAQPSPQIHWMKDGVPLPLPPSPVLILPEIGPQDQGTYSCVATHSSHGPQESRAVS

For another assay, the system named is SKOV3 cells. The experiment in a line: Internalisation assay on SKOV3 cells. Particulars: 4 h or 24 h at 37° C., compared with other clones and AB11451. The assay is classed as cell-based, human. On the procedure:
To screen internalization capacity and traffic to lysosomes of α-RAGE antibodies, all the primary antibodies used in the screening were conjugated to pHAb Amine Reactive Dye following manufacturer's instructions (Promega, UK, Cat. No. G983). This type of dye emits fluorescence when traffics to acidic environments (late endosome and lysosome). For this purpose, 1.5×10^4 SKOV3 cells/well were seeded in 8-well chamber slides (Ibidi) in 300 μl of stripped medium and cultured for 24 h in a humidified, 5% CO2 in air atmosphere incubator at 37° C. After culture, cells were washed in pre-warmed (37° C.) Dulbecco's phosphate buffered saline (DPBS) and slides placed on ice. Cells were treated with control medium or medium containing one of the α-RAGE antibodies conjugated to pH-dye at 10 μg/ml, and the 8-well chamber slides were incubated on ice for 30 minutes. Slides were then transferred to the incubator at 37° C. for 4 h or 24 h. After internalization time, cells were washed in DPBS, fixed in 4% paraformaldehyde for 20 min and permeabilized with 0.1% Triton X-100 (Sigma) for 10 minutes at 4° C. Cells were washed with PBS extensively between all steps, counterstained before imaging with Hoechst (Life Technologies™) and imaged using a LSM710 confocal fluorescence microscopy system (Zeiss, UK). Unconjugated α-RAGE antibodies were also used in the internalisation assay. In this case were visualized using Alexa-fluorophore secondary antibodies as described in the immunofluorescence method.

T2 sequence (Q15109 23-404): as the sequence (Q15109 23-404 limits assumed) above

B1: murine ID9 anti-RAGE monoclonal antibody (antibody, part only; not given: Light chain variable region, V domains shown, part only)
VH: QVTLKESGPGILKPSQTLSLTCSFSGFSLSTSGMGVGWIRQPSGKGLEWLAHIWWDDDKYYKPSLKSQVTISKDTSRNQVFLKITSVDTADTATYYCARSRYYGSSGMDYWGQGTSVTVSS
As a reminder, the EC50 (read off the curve) is the midpoint of the concentration-response curve. Read a high EC50 (read off the curve) as a less potent agent. The Kd is the equilibrium constant for the complex coming apart. As a reminder, the koff is the first-order rate constant of dissociation. For orientation: kon means the rate constant with which the complex forms. In the case of B1, in assay [1], the EC50 (read off the curve) turned out to be 1 µg/mL. In [2], this molecule displayed a Kd of 200 nM, a koff of 0.00515 s⁻¹ and a kon of 25000 M⁻¹ s⁻¹. Further, in assay [3], the Kd is 6940 nM, the koff turned out to be 0.00561 s⁻¹ and the kon was 808 M⁻¹ s⁻¹.

B2: chimeric HA9 (hHA9) anti-RAGE antibody (antibody, V domains shown)
VH: EVKLVETGGGLVQPGRPMKLSCVASGFTLSDHWMNWVRQSPEKGLEWVAQIRNRPYKFEKYYSDSVKGRFTISRDDSKNSVYLQMNNLRAEDMGIYYCSSYRYGLAYWGQGTLVTVST
VL: DNLLTQSPAILSVSPGERVSFSCRASQTIDTRIHWYQQRKNGSPRLLIRYISESLSGIPSRFSGSGSGTEFTLTINSVESEDIADYYCQQTESWPITFGSGTKLEIK
notes: Chimeric ('chimeric humanised format') version of HA9 made in HEK293 by Absolute Antibody
In [4], B2 yielded a Kd of 203 nM and a koff of 0.0032 s⁻¹.

B3: mHA9: murine version of anti-RAGE antibody clone HA9 (antibody, V domains shown)
VH: B2 VH
VL: B2 VL
For B3, in the assay with RAGE [5], the “RAGE expression detected in human healthy tissues” value is reported as “absent or very low expression”. Besides, in assay [6], the “affinity interaction by SPR (summary statement)” value is on record as “weak affinity interaction”. Besides, in [7], the “binding to immobilised RAGE synthetic peptide” value is on record as “highest affinity for the peptide sequence antigen”. Moreover, the “RAGE isoform detected by western blot” value with RAGE [8] is “able to detect expression levels of full-length transmembrane RAGE”.

B4: HA9: anti-RAGE monoclonal antibody clone, VH SEQ ID NO: 7, VL SEQ ID NO: 8, raised against RAGE aa 39-65 (antibody, V domains shown)
VH: B2 VH
VL: B2 VL
In the case of B4, the “binding to immobilised RAGE synthetic peptide” value in [7] is listed as “best binding response to the antigen”. In addition, the “uptake (internalisation), secondary antibody detection” value with SKOV3 cells is given as “highest uptake levels”.
